From article PMC10325900, “A conserved motif in the disordered linker of human MLH1 is vital for DNA mismatch repair and its function is diminished by a cancer family mutation” (Nucleic Acids Research, 2023)
“Also recorded” adds a separate entry of the source.

Tested on: G-T mismatch in a test plasmid
Assay: MMR activity of MLH1 variants (MLH1-PMS2 expressed in HEK293T cells)
Assay type: biochemical, human
Settings: >3 independent experiments; for DNA mismatch repair activity of MLH1 variant (in words): variant MLH1 + PMS2 transfected in HEK293T, relative to wildtype, 37°C, 15 min; for effect of second p.Arg385 alteration on the MMR defect of p.Tyr750Arg: double variants (Figure 6D)
Procedure: Sequence variants of the MLH1 expression vector were generated using the Q5 site directed mutagenesis system (New England Biolabs, Ipswich, MA, USA) with the appropriate primers (Supplementary Table S1).
Mismatch repair activity was assessed as described in detail before ([79],[81]) (Supplementary Figure S3). […] Mismatched DNA plasmid substrate (Supplementary Figure S3) prepared according to previously published procedures ([81–83]) was added, and reactions in a final volume of 25 μl were incubated at 37°C for 15 min. Repair efficiency was scored by purifying the mismatched DNA plasmid from the reaction and assessing the fraction of homoduplex sequence by restriction digestion of the mismatched site using EcoRV. The substrate was additionally linearized with AseI.
Figure 2. Expression and DNA mismatch repair activity of human and artificial ConMot variants. […] As a negative control, one sample was only transfected with an EGFP. After 48 h, native whole cell protein extracts were prepared. Expression was assessed by SDS-PAGE and western blotting. (A) Representative western blot of MLH1 wildtype and variant expressions. Average expression levels of MLH1 of > 5 independent transfections were determined and are given in the bar diagram below. (B) The extracts of the transfections were used to assess the DNA mismatch repair activities of the variant MLH1 proteins in comparison with wildtype (WT) MLH1-PMS2 as detailed in Materials and Methods and as shown in Supplementary Figure S3. The EGFP-transfected extract sample served as negative control. Representative agarose gels are shown in the top panel.
Figure 3. Analysis of the relevance of ConMot core and surrounding sequences. MLH1 proteins containing either the wildtype human ConMot motif sequence or variants were directly compared concerning expression and MMR activity. (A) Comparison of the ConMot variants used: the core-scramble variant sequence, the full-scramble variant sequence and an animal-plant hybrid that contains the ConMot consensus sequence of plants as it exists, for example, in walnut and mungo bean (Vigna radiata and Juglans regia). (B) Comparison of conservation in the animal versus plant ConMot in WebLogo representation. Specific differences in conservation within the sequences flanking the core MVRTD sequence are marked by red arrows above the animal sequence. (C) Western blot of the expression of the different MLH1-ConMot wildtype (WT) and the variants shown in A after transfection in HEK293T cells; negative control: transfection of EGFP. (D) MMR activities were assessed in direct comparison to negative control and wildtype human MLH1 as in Figure 2B. Average activities and standard deviations were calculated from >3 independent experiments.
Figure 6. The MMR defect of p.Tyr750Arg is partly compensated by p.Arg385Tyr. […] (B) The side chain of the highly conserved Arg385 is predicted to be in proximity to the side chain of the highly conserved Tyr750 residue. (C) MLH1-PMS2-deficient HEK293T cells were co-transfected with the indicated single- and double variants of MLH1 and PMS2. Protein extracts were prepared, separated by SDS-PAGE, blotted and probed for MLH1 protein expression. (D) MMR assays were performed to test DNA mismatch repair activity as detailed in Materials and Methods. One representative agarose gel is shown, and average repair values in comparison to wildtype and standard deviations of >3 independent experiments are shown in a bar diagram. A two-sided t-test was performed for testing significance of the difference in repair activity of p.Tyr750Arg in comparison to the double variant p.Arg385Tyr + Tyr750Arg.
Mismatched DNA plasmid substrate and principle of MMR assay.
The MMR assay is performed using as substrate a modified 2 kbp derivative of the pUC vector (pUC
CPDC Bb v) originally generated by Wang and Hays and further modified by Plotz et al. and Gonzáles-
Acosta et al . […]

ΔConMot: deletion variant in which the conserved ConMot sequence comprising 20 residues was removed
DNA mismatch repair activity of MLH1 variant (in words): fully abrogated mismatch repair
DNA mismatch repair activity of MLH1 variant (in words) (listed as deletion): complete loss of MMR activity
DNA mismatch repair activity of MLH1 variant (in words) (listed as deletion of the ConMot): fully deficient in MMR

p.Arg385Pro: human MLH1 missense variant in the MVRTD motif
DNA mismatch repair activity of MLH1 variant (in words): a defect similarly strong as the core-scramble variant; also recorded: most pronounced effect; also recorded: mismatch repair defect
DNA mismatch repair activity of MLH1 variant (in words) (listed as proline substitution of Arg385): loss of mismatch repair activity

B1: p.Arg385Tyr: MLH1 variant (protein, UniProt P40692 2-756, looked up, variant R385Y)
DNA mismatch repair protein …: SFVAGVIRRLDETVVNRIAAGEVIQRPANAIKEMIENCLDAKSTSIQVIVKEGGLKLIQIQDNGTGIRKEDLDIVCERFTTSKLQSFEDLASISTYGFRGEALASISHVAHVTITTKTADGKCAYRASYSDGKLKAPPKPCAGNQGTQITVEDLFYNIATRRKALKNPSEEYGKILEVVGRYSVHNAGISFSVKKQGETVADVRTLPNASTVDNIRSIFGNAVSRELIEIGCEDKTLAFKMNGYISNANYSVKKCIFLLFINHRLVESTSLRKAIETVYAAYLPKNTHPFLYLSLEISPQNVDVNVHPTKHEVHFLHEESILERVQQHIESKLLGSNSSRMYFTQTLLPGLAGPSGEMVKSTTSLTSSSTSGSSDKVYAHQMVYTDSREQKLDAFLQPLSKPLSSQPQAIVTEDKTDISSGRARQQDEEMLELPAPAEVAAKNQSLEGDTTKGTSEMSEKRGPTSSNPRKRHREDSDVEMVEDDSRKEMTAACTPRRRIINLTSVLSLQEEINEQGHEVLREMLHNHSFVGCVNPQWALAQHQTKLYLLNTTKLSEELFYQILIYDFANFGVLRLSEPAPLFDLAMLALDSPESGWTEEDGPKEGLAEYIVEFLKKKAEMLADYFSLEIDEEGNLIGLPLLIDNYVPPLEGLPIFILRLATEVNWDEEKECFESLSKECAMFYSIRKQYISEESTLSGQQSEVPGSIPNSWKWTVEHIVYKALRSHILPPKHFTEDGNILQLANLPDLYKVFERC
DNA mismatch repair activity of MLH1 variant (in words): well tolerated

B2: p.Arg385His: human MLH1 missense variant, c.1154G>A (protein, UniProt P40692 2-756, looked up, variant R385H)
DNA mismatch repair protein …: SFVAGVIRRLDETVVNRIAAGEVIQRPANAIKEMIENCLDAKSTSIQVIVKEGGLKLIQIQDNGTGIRKEDLDIVCERFTTSKLQSFEDLASISTYGFRGEALASISHVAHVTITTKTADGKCAYRASYSDGKLKAPPKPCAGNQGTQITVEDLFYNIATRRKALKNPSEEYGKILEVVGRYSVHNAGISFSVKKQGETVADVRTLPNASTVDNIRSIFGNAVSRELIEIGCEDKTLAFKMNGYISNANYSVKKCIFLLFINHRLVESTSLRKAIETVYAAYLPKNTHPFLYLSLEISPQNVDVNVHPTKHEVHFLHEESILERVQQHIESKLLGSNSSRMYFTQTLLPGLAGPSGEMVKSTTSLTSSSTSGSSDKVYAHQMVHTDSREQKLDAFLQPLSKPLSSQPQAIVTEDKTDISSGRARQQDEEMLELPAPAEVAAKNQSLEGDTTKGTSEMSEKRGPTSSNPRKRHREDSDVEMVEDDSRKEMTAACTPRRRIINLTSVLSLQEEINEQGHEVLREMLHNHSFVGCVNPQWALAQHQTKLYLLNTTKLSEELFYQILIYDFANFGVLRLSEPAPLFDLAMLALDSPESGWTEEDGPKEGLAEYIVEFLKKKAEMLADYFSLEIDEEGNLIGLPLLIDNYVPPLEGLPIFILRLATEVNWDEEKECFESLSKECAMFYSIRKQYISEESTLSGQQSEVPGSIPNSWKWTVEHIVYKALRSHILPPKHFTEDGNILQLANLPDLYKVFERC
DNA mismatch repair activity of MLH1 variant (in words): tolerated; also recorded: did not affect catalytic activity

B3: p.Arg385Glu: MLH1 control variant (protein, UniProt P40692 2-756, looked up, variant R385E)
DNA mismatch repair protein …: SFVAGVIRRLDETVVNRIAAGEVIQRPANAIKEMIENCLDAKSTSIQVIVKEGGLKLIQIQDNGTGIRKEDLDIVCERFTTSKLQSFEDLASISTYGFRGEALASISHVAHVTITTKTADGKCAYRASYSDGKLKAPPKPCAGNQGTQITVEDLFYNIATRRKALKNPSEEYGKILEVVGRYSVHNAGISFSVKKQGETVADVRTLPNASTVDNIRSIFGNAVSRELIEIGCEDKTLAFKMNGYISNANYSVKKCIFLLFINHRLVESTSLRKAIETVYAAYLPKNTHPFLYLSLEISPQNVDVNVHPTKHEVHFLHEESILERVQQHIESKLLGSNSSRMYFTQTLLPGLAGPSGEMVKSTTSLTSSSTSGSSDKVYAHQMVETDSREQKLDAFLQPLSKPLSSQPQAIVTEDKTDISSGRARQQDEEMLELPAPAEVAAKNQSLEGDTTKGTSEMSEKRGPTSSNPRKRHREDSDVEMVEDDSRKEMTAACTPRRRIINLTSVLSLQEEINEQGHEVLREMLHNHSFVGCVNPQWALAQHQTKLYLLNTTKLSEELFYQILIYDFANFGVLRLSEPAPLFDLAMLALDSPESGWTEEDGPKEGLAEYIVEFLKKKAEMLADYFSLEIDEEGNLIGLPLLIDNYVPPLEGLPIFILRLATEVNWDEEKECFESLSKECAMFYSIRKQYISEESTLSGQQSEVPGSIPNSWKWTVEHIVYKALRSHILPPKHFTEDGNILQLANLPDLYKVFERC
effect of second p.Arg385 alteration on the MMR defect of p.Tyr750Arg: additionally aggravated the defect
DNA mismatch repair activity of MLH1 variant (in words): a defect similarly strong as the core-scramble variant

B4: p.Arg385Ala: MLH1 control variant (protein, UniProt P40692 2-756, looked up, variant R385A)
DNA mismatch repair protein …: SFVAGVIRRLDETVVNRIAAGEVIQRPANAIKEMIENCLDAKSTSIQVIVKEGGLKLIQIQDNGTGIRKEDLDIVCERFTTSKLQSFEDLASISTYGFRGEALASISHVAHVTITTKTADGKCAYRASYSDGKLKAPPKPCAGNQGTQITVEDLFYNIATRRKALKNPSEEYGKILEVVGRYSVHNAGISFSVKKQGETVADVRTLPNASTVDNIRSIFGNAVSRELIEIGCEDKTLAFKMNGYISNANYSVKKCIFLLFINHRLVESTSLRKAIETVYAAYLPKNTHPFLYLSLEISPQNVDVNVHPTKHEVHFLHEESILERVQQHIESKLLGSNSSRMYFTQTLLPGLAGPSGEMVKSTTSLTSSSTSGSSDKVYAHQMVATDSREQKLDAFLQPLSKPLSSQPQAIVTEDKTDISSGRARQQDEEMLELPAPAEVAAKNQSLEGDTTKGTSEMSEKRGPTSSNPRKRHREDSDVEMVEDDSRKEMTAACTPRRRIINLTSVLSLQEEINEQGHEVLREMLHNHSFVGCVNPQWALAQHQTKLYLLNTTKLSEELFYQILIYDFANFGVLRLSEPAPLFDLAMLALDSPESGWTEEDGPKEGLAEYIVEFLKKKAEMLADYFSLEIDEEGNLIGLPLLIDNYVPPLEGLPIFILRLATEVNWDEEKECFESLSKECAMFYSIRKQYISEESTLSGQQSEVPGSIPNSWKWTVEHIVYKALRSHILPPKHFTEDGNILQLANLPDLYKVFERC
effect of second p.Arg385 alteration on the MMR defect of p.Tyr750Arg: additionally aggravated the defect
DNA mismatch repair activity of MLH1 variant (in words): a defect similarly strong as the core-scramble variant
